Experimental findings from article PMC3101103 (The Journal of Cell Biology, 2011) are described below.

Data set [1] deals with ACP-TM with the C-terminal YFP fragment at its C terminus (rabbit | not stated). The experiment in a line: split reporter.
Data set [2] concerns the target N-formyl peptide receptor (FPR), nonactivating mutant D71A (UniProt P21462). Nature of the data set: single-molecule TIRF imaging, 2D-3D Scatchard plot.
The target is the same in data set [3]. The experiment in a line: TIRF imaging, time course of surface-bound fluorescence.
Data set [4] concerns the molecule itself. The experiment in a line: single-molecule TIRF imaging, duration of colocalization events.
Data set [5] deals with the molecule itself. The experiment in a line: single-molecule TIRF imaging, spot-intensity histograms against expression level.

For the molecule “ACP-TM with the N-terminal YFP fragment at its C terminus (from UniProt P42212 1-155)”, in data set [1], the corrected lifetime of BiFC dimers was 163 ms. As for “N-formyl-Nle-Leu-Phe-Nle-Tyr-Lys conjugated with Alexa Fluor 594 (peptide)”, in data set [2], the Kd (usually a measure of binding affinity in units of concentration) amounted to 2.2 nM. The kon (in general, the second-order rate constant of association) in data set [3] worked out at 7.6e+06 M⁻¹ s⁻¹.

B1: N-formyl peptide receptor (FPR), nonactivating mutant D71A (receptor, UniProt P21462 1-350, looked up)
chain: METNSSLPTNISGGTPAVSAGYLFLDIITYLVFAVTFVLGVLGNGLVIWVAGFRMTHTVTTISYLNLAVAAFCFTSTLPFFMVRKAMGGHWPFGWFLCKFVFTIVDINLFGSVFLIALIALDRCVCVLHPVWTQNHRTVSLAKKVIIGPWVMALLLTLPVIIRVTTVPGKTGTVACTFNFSPWTNDPKERINVAVAMLTVRGIIRFIIGFSAPMSIVAVSYGLIATKIHKQGLIKSSRPLRVLSFVAAAFFLCWSPYQVVALIATVRIRELLQGMYKEIGIAVDVTSALAFFNSCLNPMLYVFMGQDFRERLIHALPASLERALTEDSTQTSDTATNSTLPSAEVELQAK
On to B1, for which the koff (in general, the first-order rate constant of dissociation) in data set [4] turned out to be 11 s⁻¹. The stoichiometry N (as a rule, a count of units in the complex or per binding partner) in data set [5] worked out at 2.
